# Test results as given in patent US10577428B2, “Anti-factor XI monoclonal antibodies and methods of use thereof” (Oregon Health & Science University, priority 2007, dated 2020).
# Entries after “also recorded” stand apart in the source; their conditions may differ. Like-named read-outs stand apart in the source and are kept apart here.
# Experiments:
# [1] = system: baboons (Papio anubis); assay: Vascular graft occlusion studies, collagen coated 2 mm i.d. grafts, high arterial shear; type: in vivo, baboon (Papio anubis); conditions: 2 mm i.d. grafts
# Description: Thrombus formation was initiated within the baboon AV shunt by interposing a thrombogenic segment of prosthetic vascular graft (ePTFE, WL Gore & Co., Flagstaff, Ariz.), as previously described (Hanson et al. (1993) J. Clin. Invest. 92:2003-2012). To consistently trigger platelet-dependent thrombus formation, the clinical graft segments were coated with immobilized collagen. Twenty mm long grafts having internal diameters (i.d.) of either 2 or 4 mm were filled with equine type I collagen (1 mg/ml; Nycomed Arzenmittel, Munich, Germany) for 15 min, and then dried overnight under sterile airflow. This method produced a uniform collagen coating within the graft lumen as determined by scanning electron microscopy (FIGS. 1B and 1C). The thrombogenic collagen-coated grafts were then incorporated between segments of silicon rubber tubing, and deployed into the AV shunts (FIG. 1A). The grafts were exposed to blood for up to 60 min. During each experiment, the blood flow rate through the graft was restricted to 100 ml/min by clamping the proximal silicone rubber shunt segment, thereby producing a mean wall shear rate (MWSR) in the 4 mm grafts of 265 s^−1, while in the 2 mm grafts the initial MWSR was 2120 s^−1. Flow rates were continuously monitored using an ultrasonic flow meter (Transonics Systems, Ithaca, N.Y.). […] Baseline blood flow was restored through the permanent shunt after each experiment. In the 2 mm diameter grafts blood flow rates progressively declined due to thrombus formation. The grafts were removed from the AV shunts when the flow rate fell from 100 ml/min to below 20 ml/min, signaling imminent occlusion. The time from initiation of blood flow to graft removal (<20 ml/min blood flow) was taken as the occlusion time.
# Occlusion studies were performed using 10 mm long 2 mm i.d. collagen coated devices which produced high arterial shear rates (2120 s^−1 at 100 ml/min clamped blood flow). Accumulation of labeled platelets onto 2 mm thrombogenic grafts were measured in 3-min intervals using a gamma scintillation camera. Flow was maintained at 100 ml/min by proximal clamping for as long as possible, and then allowed to decrease as the propagating thrombus began to occlude the device. A final blood flow rate of 20 ml/min was used as a cutoff for occlusion, since a fully occlusive thrombi and lack of blood flow through the device could lead to occlusion of the shunt and a significant loss of blood for the animals.
# Since aspirin is a less antihemostatic agent than heparin, and it is often included in the standard treatment of arterial-type platelet-dependent thrombosis, ASA was used in the current studies with the occlusion-prone 2 mm i.d. grafts as a long-acting positive control. ASA (32 mg/kg) was administered orally 2-4 h before each thrombosis experiment, as described previously (Hanson et al. (1985) J. Clin. Invest. 75:1591-1599). Four weeks were allowed for washout of each aXIMab and ASA before performing new experiments in the same animal.
# [2] = target: Prekallikrein (PK) (Homo sapiens, UniProt P03952); assay: Western blot binding to prekallikrein
# Prekallikrein (PK), sequence (P03952 20-638): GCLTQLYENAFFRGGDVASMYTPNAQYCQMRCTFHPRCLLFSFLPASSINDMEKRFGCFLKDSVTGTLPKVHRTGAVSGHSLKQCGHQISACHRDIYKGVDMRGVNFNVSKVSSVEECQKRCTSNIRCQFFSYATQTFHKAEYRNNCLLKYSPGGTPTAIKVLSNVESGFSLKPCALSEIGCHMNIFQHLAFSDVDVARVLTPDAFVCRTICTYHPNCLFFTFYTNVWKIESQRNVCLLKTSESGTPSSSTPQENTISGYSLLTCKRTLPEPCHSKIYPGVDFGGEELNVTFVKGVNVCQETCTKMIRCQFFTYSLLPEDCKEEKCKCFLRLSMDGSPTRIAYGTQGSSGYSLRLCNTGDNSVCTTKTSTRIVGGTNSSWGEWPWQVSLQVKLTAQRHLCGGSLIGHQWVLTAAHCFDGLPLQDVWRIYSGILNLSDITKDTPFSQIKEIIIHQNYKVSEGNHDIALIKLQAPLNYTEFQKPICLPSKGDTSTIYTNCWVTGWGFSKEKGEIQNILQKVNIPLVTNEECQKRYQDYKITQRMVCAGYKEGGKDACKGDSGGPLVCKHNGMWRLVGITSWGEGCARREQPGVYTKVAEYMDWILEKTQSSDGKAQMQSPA
# Description: Comparative binding studies for monoclonal antibody 1A6 were conducted using FXI, Prekallikrein (PK), and FXI/PK chimeras involving either the substitution FXI domains with PK domains (FIG. 9) or the substitution of PK domains with FXI domains (FIG. 10).
# [3] = target: T1, Human FXI in plasma (Homo sapiens, UniProt P03951); assay: Western blot of human plasma; type: binding
# T1 construct: antibody 1A6 recognizes Factor XI in human and non-human primate plasma; from tissue; host or cells: normal human plasma (A4); whole human blood or reconstituted FXII-deficient human blood (A9)
# Source text: (§1) Results from a Western Blot study corroborating that anti-factor XI monoclonal antibody 1A6 recognizes Factor XI in human and non-human primate plasma is shown in FIG. 7A.
# [4] = system: normal human plasma (NHP); assay: aPTT and PT in normal human plasma in vitro; type: biochemical; conditions: 0-40 nM
# [5] = target: T2, FXI (Homo sapiens, UniProt P03951); assay: Flow chamber coagulation studies (blood perfused over collagen); type: cell-based
# T2 construct: antibody 1A6 recognizes Factor XI in human and non-human primate plasma; from tissue; host or cells: normal human plasma (A4); whole human blood or reconstituted FXII-deficient human blood (A9)
# Description: Glass capillary tubes were coated with 100 μg/ml Horm collagen (Nycomed Arzenmittel, Munich, Germany). Whole human blood was collected into corn trypsin inhibitor (CTI, 40 μg/ml), discarding the first 1 ml to limit any activation of the coagulation pathway, and then perfused through the tubes at a shear rate of 265 s^−1 for 10 min. […] In separate experiments, washed platelets and RBCs were processed as described (McCarty et al. (2006) J. Thromb. Haemost. 4:1367-1378), and then mixed with FXII deficient human plasma (<1% FXII, Haematologic Technologies, Essex Junction, Vt.) to reach a hematocrit of 40% and platelet count of 300×10^3/μl. […] Recalcified FXII deficient human plasma without RBCs or platelets was also perfused over collagen. Images were obtained by DIC microscopy after three minutes of perfusion with modified Tyrodes buffer.
# When whole human blood, which was anticoagulated with CTI to block the function of FXIIa, was perfused over collagen at arterial shear (265 s^−1), platelets were deposited in large aggregates which became enveloped by forming fibrin strands (FIG. 7B). […] The outcome was similar when using reconstituted FXII deficient blood, with or without CTI. […] No fibrin was formed when recalcified FXII deficient human plasma was perfused over collagen. For these experiments, human whole blood, anticoagulated with CTI (40 μg/ml) to inhibit FXIIa, or reconstituted FXII deficient human blood was perfused through collagen coated capillary tubes at a shear rate of 265 s^−1 for 10 minutes. […] Images were obtained via Kohler-illuminated Nomarski differential interference contrast (DIC) microscopy with a Zeiss Axiovert 200M microscope using a Zeiss 63× oil immersion 1.40 NA plan-apochromat lens. Images were captured following three minutes of perfusion with modified Tyrodes buffer using a Zeiss AxioCam with Slidebook 4.0 (Intelligent Imaging Innovations, Inc., Denver, Colo., USA). All experiments were performed at 37° C. Each image in FIG. 7B is representative of 2-3 experiments.
# [6] = system: baboon FXI in plasma; assay: Western blot of baboon / non-human primate plasma; type: binding
# Source text: as §1
# [7] = system: FXI; assay: FXI clotting assay in vitro (FXI deficient human plasma, NBP dilutions as standards); type: biochemical, baboon; conditions: serial dilutions of NBP as standards
# [8] = CTI (40 μg/ml) whole human blood, aXIMab 20 μg/ml, collagen, 265 s^-1, 10 min
# [9] = FXII-inhibited or deficient human blood under flow (FIG. 7B)
molecule,measurement,setting,value
"aXIMab: neutralizing murine IgG/kappa anti-human FXI monoclonal antibody from hybridoma 1A6; binds A3 domain; VH SEQ ID NO:3, VL SEQ ID NO:5 (antibody, listed as Mus musculus, V domains shown) VH: QVTLKESGPGILKPSQTLSLTCSFSGFSLSTSGMGVGWIRQPSGKGLEWLAHIWWDDDKYYNPSLKSQLTISKDTSRNQVFLKITSVDAADTATYYCARKRSSVVAHYYAMDYWGQGTSVTVSS VL: DIVLTQSPASLAVSLGQRATISCKASQSVDYDGDSYLNWYQQKPGQPPKLLIYAASNLESGIPARFSGSGSGTDFTLNIHPVEEEDAATYYCQQSNGDPWTFGGGTKLEIK",initial platelet accumulation rate versus vehicle,[1],similar
same,thrombus stability,[1]; 2120 s^-1,unstable; also recorded: profoundly reduced
same,Number occluded,[1]; 60 min,0/5
same,graft occlusion,[1]; 60 min-long studies (FIG. 5),did not occlude the grafts
same,time after initiation of blood perfusion when growth rate of platelet thrombus was reduced,[1]; all treated animals,12 to 15 min
same,Embolic events per experiment,[1]; mean ± SEM,6.6 ± 0.9
same,Fibrin deposition,"[1]; mean ± SEM, control 0.30 ± 0.04",0.18 ± 0.02 mg
same,grafts remained patent,[1]; over 60 min,5 of 5
same,binding to PK,[2],did not bind
same,recognition of FXI on Western blot,[3],single band at 160 kDa
same,recognition of FXI on Western blot,[3]; listed as 1A6,recognizes
same,prothrombin time (PT),[4],without affecting
same,activated partial thromboplastin time (aPTT),[4]; concentration-dependent,prolonged
same,Fibrin deposition,[5]; [8],noticeably attenuated
same,platelet adhesion,[5]; [8],modest reduction
same,platelet accumulation,[5]; [9],reduced
same,visible fibrin formation,[5]; [9],prevented
same,fibrin formation,"[5]; reconstituted FXII deficient human blood, with or without CTI, aXIMab 20 μg/ml",interrupted fibrin formation
same,recognition of FXI on Western blot,[6],single band at 160 kDa
same,recognition of FXI on Western blot,[6]; listed as 1A6,recognizes
same,IC99,[7],10 nM
